These results are taken from patent publication US20040053296A1 (TAKARA BIO, published 2004).

Test [1] has as its target T1, mucin box-deleted mutant of rat neutral ceramidase (delta-mucin CDase), C-terminal myc tag (rat, UniProt Q91XT9 1-761).
T1 construct: Expressed in HEK293 cells, immunoprecipitated and blotted; also called Δmucin; Δmucin CDase; not shown: C-terminal Myc-His tag from vector pcDNA3.1/Myc-his(+)
Briefly: lectin blot with HRP-labeled PNA lectin after immunoprecipitation from HEK293 lysate. How it is done: CDase was immunoprecipitated from the cell lysate of HEK293 cells prepared in Example 2, in which Δmucin or wild-type CDase was expressed, by using an anti-CDase antibody. A 100-fold dilution of anti-CDase was coupled with 10 μl of protein A-agarose (trade name, manufactured by SANTA CRUZ) in 100 μl of a reaction buffer (10 mM Tris-HCl, pH 7.5, containing 150 mM NaCl, 1% (v/v) Tritonm X-100 and 0.1% (w/v) BSA) at 4° C. for 2 hours. The product obtained was washed five times with the above reaction buffer. Thereafter, this product was mixed with a CDase sample, obtained by previously heating at 100° C. for 5 minutes in SDS sample buffer [20 mM Tris-HCl, pH 7.5, containing 1% (w/v) SDS and 1% (v/v) 2-mercaptoethanol], and incubated at 4° C. for 18 hours with gentle stirring. Subsequently, the immunoprecipitate was sedimented by centrifugation, washed five times with the above reaction buffer, suspended in 20 μl of the SDS sample buffer, and heated at 100° C. for 5 minutes. The resulting product was subjected to SDS-PAGE and Western blotting as described in Example 2. The PVDF membrane was stained with an anti-Myc antibody or an HRP-labeled PNA lectin. PNA (peanut agglutinin) lectin is a lectin capable of specifically recognizing and binding to the Galβ1,3GalNAc sequence of O-glycan.

The target of test [2] is T2, 94-kDa mouse neutral ceramidase from the soluble fraction of the liver, lacking the mucin box (mouse, UniProt Q9JHE3 75-756, limits assumed).
T2 construct: The whole entry is named here, and the true chain is shorter at the N-terminus; also called 94-kDa CDase; enzyme in the soluble fraction of the liver
Briefly: lectin blot with HRP-labeled PNA lectin after immunoprecipitation from mouse liver soluble fraction.

T2 sequence (Q9JHE3 75-756 limits assumed): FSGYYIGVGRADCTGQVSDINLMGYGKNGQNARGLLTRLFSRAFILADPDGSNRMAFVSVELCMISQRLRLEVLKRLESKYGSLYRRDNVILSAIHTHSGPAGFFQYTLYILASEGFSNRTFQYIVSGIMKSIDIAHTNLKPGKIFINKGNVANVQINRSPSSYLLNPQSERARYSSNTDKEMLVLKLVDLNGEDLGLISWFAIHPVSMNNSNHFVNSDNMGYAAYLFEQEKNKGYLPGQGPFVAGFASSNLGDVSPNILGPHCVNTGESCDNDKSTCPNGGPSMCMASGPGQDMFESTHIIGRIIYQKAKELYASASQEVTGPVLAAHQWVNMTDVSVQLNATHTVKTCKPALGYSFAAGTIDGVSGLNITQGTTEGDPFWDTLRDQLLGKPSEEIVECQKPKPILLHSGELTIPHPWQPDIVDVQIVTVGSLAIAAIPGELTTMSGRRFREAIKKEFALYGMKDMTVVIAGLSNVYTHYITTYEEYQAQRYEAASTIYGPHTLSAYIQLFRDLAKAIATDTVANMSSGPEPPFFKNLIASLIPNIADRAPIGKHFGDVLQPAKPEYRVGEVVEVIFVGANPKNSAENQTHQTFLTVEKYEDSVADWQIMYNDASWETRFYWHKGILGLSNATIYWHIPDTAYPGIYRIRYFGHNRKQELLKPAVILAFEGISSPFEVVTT
T1 sequence (Q91XT9 other isoform, or with tags, fused parts or gaps mutant): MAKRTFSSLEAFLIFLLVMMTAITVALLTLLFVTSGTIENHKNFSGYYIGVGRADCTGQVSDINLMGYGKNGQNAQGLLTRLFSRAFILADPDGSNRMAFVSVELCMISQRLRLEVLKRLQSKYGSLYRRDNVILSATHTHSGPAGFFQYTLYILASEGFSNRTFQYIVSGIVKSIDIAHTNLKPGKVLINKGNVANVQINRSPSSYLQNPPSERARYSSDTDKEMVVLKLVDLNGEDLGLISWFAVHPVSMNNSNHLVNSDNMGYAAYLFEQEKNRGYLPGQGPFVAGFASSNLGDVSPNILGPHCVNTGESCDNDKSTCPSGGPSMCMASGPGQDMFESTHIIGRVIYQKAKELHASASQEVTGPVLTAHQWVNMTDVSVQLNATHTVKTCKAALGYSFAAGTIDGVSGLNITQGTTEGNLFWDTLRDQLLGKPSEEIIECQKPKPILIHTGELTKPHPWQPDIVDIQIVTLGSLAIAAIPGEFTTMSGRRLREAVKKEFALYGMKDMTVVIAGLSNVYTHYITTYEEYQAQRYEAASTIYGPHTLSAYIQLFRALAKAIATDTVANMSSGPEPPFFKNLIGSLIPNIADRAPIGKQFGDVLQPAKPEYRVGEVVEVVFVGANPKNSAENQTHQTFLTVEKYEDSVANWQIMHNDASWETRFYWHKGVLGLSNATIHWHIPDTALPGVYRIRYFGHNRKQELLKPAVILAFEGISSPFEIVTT

B1: HRP-labeled PNA lectin (peanut agglutinin) (other, UniProt P02872 24-259, looked up)
chain: AETVSFNFNSFSEGNPAINFQGDVTVLSNGNIQLTNLNKVNSVGRVLYAMPVRIWSSATGNVASFLTSFSFEMKDIKDYDPADGIIFFIAPEDTQIPAGSIGGGTLGVSDTKGAGHFVGVEFDTYSNSEYNDPPTDHVGIDVNSVDSVKTVPWNSVSGAVVKVTVIYDSSTKTLSVAVTNDNGDITTIAQVVDLKAKLPERVKFGFSASGSLGGRQIHLIRSWSFTSTLITTTRRS
modifications: HRP-labeled
notes: Lectin used as a blotting reagent; also called peanut lectin
Regarding B1, the binding result in test [1] and in test [2] was “no binding” each time.
